Measured values from publication PMC7081427.

Columns and labels:
Assay in all cases: EMSA
[1] = target: T1, nucleolin RRM (UniProt P19338 267-645)
[2] = target: RRM-RGG F/A2 (UniProt P19338 267-709, F663A;F676A)
[3] = target: RRM-RGG F/A3 (UniProt P19338 267-709, F663A;F676A;F684A)
[4] = target: RRM-RGG F/A1 (UniProt P19338 267-709, F663A)
[5] = target: T1, nucleolin RRM; remark: listed apart in the source
[6] = target: nucleolin RRM-RGG (UniProt P19338 267-709)
Sequence of nucleolin RRM-RGG (P19338 267-709): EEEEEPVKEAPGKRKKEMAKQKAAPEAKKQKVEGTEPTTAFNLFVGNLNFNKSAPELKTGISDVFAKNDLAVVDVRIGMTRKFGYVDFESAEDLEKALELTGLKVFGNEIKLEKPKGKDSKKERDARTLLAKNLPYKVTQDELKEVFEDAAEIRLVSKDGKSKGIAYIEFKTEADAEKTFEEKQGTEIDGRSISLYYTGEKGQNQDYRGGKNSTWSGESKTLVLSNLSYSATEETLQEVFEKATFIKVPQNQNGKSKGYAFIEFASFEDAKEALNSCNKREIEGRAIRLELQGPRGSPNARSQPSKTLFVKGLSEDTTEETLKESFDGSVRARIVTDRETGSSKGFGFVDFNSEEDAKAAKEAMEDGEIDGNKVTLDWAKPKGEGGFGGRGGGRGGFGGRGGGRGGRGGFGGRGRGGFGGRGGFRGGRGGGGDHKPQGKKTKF

T1 sequence (P19338 267-645): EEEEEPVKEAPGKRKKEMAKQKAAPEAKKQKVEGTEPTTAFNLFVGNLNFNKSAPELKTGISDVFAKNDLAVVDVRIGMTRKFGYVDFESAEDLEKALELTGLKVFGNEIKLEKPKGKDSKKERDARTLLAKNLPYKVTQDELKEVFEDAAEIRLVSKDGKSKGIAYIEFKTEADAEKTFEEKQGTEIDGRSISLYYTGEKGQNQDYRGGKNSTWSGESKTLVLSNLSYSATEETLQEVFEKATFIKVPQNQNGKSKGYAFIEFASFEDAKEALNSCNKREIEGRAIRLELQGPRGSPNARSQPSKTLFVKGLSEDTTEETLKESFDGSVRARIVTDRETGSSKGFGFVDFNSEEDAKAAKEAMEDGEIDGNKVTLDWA
Sequence of RRM-RGG F/A1 (P19338 267-709 F663A): as the sequence (P19338 267-709) above, with F397A counted along it
Sequence of RRM-RGG F/A3 (P19338 267-709 F663A/F676A/F684A): as the sequence (P19338 267-709) above, with F397A, F410A, F418A counted along it
Sequence of RRM-RGG F/A2 (P19338 267-709 F663A/F676A): as the sequence (P19338 267-709) above, with F397A, F410A counted along it

Binder	binding result [1]	Kd [2]	Kd [3]	Kd [4]	Kd [5]	Kd [6]
GGGGGGGGGG (ssDNA) [dG10]	binds					
GGGCGCGGGAGGAATTGGGCGGG (structured_DNA) [BCL-2]		71.8 ± 6.9 nM	172 ± 9.1 nM	75.5 ± 9.5 nM	73.6 ± 7.1 nM	79.6 ± 4 nM
